Data: US20110104140A1, “USE OF NON-CATALYTIC FORM OF HEPARANASE AND PEPTIDES THEREOF FOR REVERSING THE ANTI-COAGULANT EFFECTS OF HEPARINOIDS” (priority 2006, published 2011)
“Also recorded” adds a separate entry of the source.

Columns and labels:
[1] = test system: Factor Xa; assay: Factor Xa activity in plasma with heparin / LMWH (anti-Xa activity); assay type: biochemical, human; conditions: for Reversal of Factor Xa inhibitory effect of heparin: peptide, dose dependent, complete at 1 mg/ml, FIG. 6; for Reversal of heparin anti-Xa activity: increasing doses of heparanase proenzyme, in the presence of AT
Description: Heparin inhibits the activity of activated coagulation factor X (Xa). […] Abbreviations: act. (activity), plas. (plasma).
(§1) Coagulation Assays • aPTT-Automatic determination of activated partial thromboplastin time (aPTT) of samples was performed in duplicates, by mixing pooled normal plasma with aPTT reagent (FSL actin, Dade Behring). After exactly 10 min, the clotting time was determined on Sysmex CA1500 analyzer. • Xa activity—Photometric determination of anti-Xa activity was performed to evaluate the activity of LMWH in human plasma on Sysmex CA1500 analyzer, using the LMWH Kit (Chromogenics). • PT—Prothrombin time (PT) was determined using the Innovin reagent (Dade Behring) on Sysmex CA1500 analyzer. • Protein C—Protein C activity was determined by the Berichrom Protein C kit, and ATIII was measured by the chromogenic Berichrom Antithrombin III kit (both from Dade Behring). • Platelet aggregation—Platelet aggregation was measured on normal donor platelets utilizing the Payton Aggregocorder type aggregometer (Payton Associates). • Protein S—Free Protein S was measured with the Liatest kit (Diagnostica Stago). All coagulation assays were subjected to external quality control program (NEQUAS, Sheffield, UK).
In recent years LMWH became widely used anti-coagulants due to their prominent anti-coagulant activity, and improved pharmacokinetics compared with un-fractionated heparin. However, there is still no existing anti-dot to inhibit these clinically highly abundant anti-coagulants, in the case of urgent clinical needs. Such needs may occur during extensive bleedings (e.g. brain) caused by LMWH overdose, or un-controlled bleedings in LMWH treated individuals due to other medical causes. Therefore, the effects of heparanase pro-enzyme on the anti-coagulant activities of heparinoids, was next tested by the inventors. […] Similar effects of heparanase were observed on plasma treated with unfractionated heparin (not shown).

[2] = target: T1, heparanase (Homo sapiens, UniProt Q9Y251); conditions: previously shown, WO 2005/071070; cited from earlier work
T1 sequence (Q9Y251 158-543 limits assumed): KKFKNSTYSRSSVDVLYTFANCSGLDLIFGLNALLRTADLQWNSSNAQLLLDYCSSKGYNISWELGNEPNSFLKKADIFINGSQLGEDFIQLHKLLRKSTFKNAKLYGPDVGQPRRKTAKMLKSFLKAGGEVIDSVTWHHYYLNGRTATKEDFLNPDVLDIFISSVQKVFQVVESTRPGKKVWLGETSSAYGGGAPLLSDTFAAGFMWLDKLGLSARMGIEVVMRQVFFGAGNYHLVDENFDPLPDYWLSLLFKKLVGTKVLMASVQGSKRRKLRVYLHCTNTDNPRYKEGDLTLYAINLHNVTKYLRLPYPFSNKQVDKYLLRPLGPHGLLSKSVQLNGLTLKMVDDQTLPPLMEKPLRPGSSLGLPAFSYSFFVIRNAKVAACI

[3] = test system: extrinsic coagulation pathway; assay: Prothrombin time (PT); assay type: biochemical; conditions: for Effect on PT response: not shown
Description: as §1
(§2) To examine the possible involvement of heparanase in the coagulation process, variety of coagulation tests including activated […] (aPTT, testing the intrinsic coagulation pathway), prothrombin time (PT, testing the extrinsic coagulation pathway), thrombin time (TT, testing thrombin mediated fibrin generation), as well as protein C and protein S (both coagulation inhibitors) were performed by the inventors.

[4] = test system: heparin anti-coagulant effects on the aPTT response; assay: aPTT assay in normal plasma with heparin; assay type: biochemical
Description: In the aPTT assay, clot is generated within normal plasma by the intrinsic coagulation pathway. […] Abbreviations: cont. (control), N. coag. (No coagulation).
as §1
The extent of blood coagulation responses requires the balance by anticoagulant components in the microenvironment of the endothelium, represented by cell surface HSPG and associated coagulation inhibitors. Heparanase, which is released from platelets upon activation may function as a physiological procoagulant. […] Two coagulation assays are affected by heparinoids: activated partial thromboplastin time (aPTT) which measures the intrinsic coagulation pathway, and thrombin time (TT) which measures the thrombin-mediated conversion of fibrinogen to fibrin. As illustrated by FIG. 1, in both cases, heparin forms a ternary complex with the natural thrombin inhibitor antithrombin III (ATIII) and thrombin, resulting in thrombin inactivation. […]

[5] = test system: heparin anti-coagulant effects on thrombin activity; assay: Thrombin time assay (TTA) in normal plasma with heparin; assay type: biochemical; conditions: FIG. 3
Excerpt: In the thrombin time assay (TTA), clot is generated within normal plasma. […] Abbreviations: cont. (control), sec. (seconds), N. coag. (No coagulation).
The extent of blood coagulation responses requires the balance by anticoagulant components in the microenvironment of the endothelium, represented by cell surface HSPG and associated coagulation inhibitors. Heparanase, which is released from platelets upon activation may function as a physiological procoagulant. […] Two coagulation assays are affected by heparinoids: activated partial thromboplastin time (aPTT) which measures the intrinsic coagulation pathway, and thrombin time (TT) which measures the thrombin-mediated conversion of fibrinogen to fibrin. As illustrated by FIG. 1, in both cases, heparin forms a ternary complex with the natural thrombin inhibitor antithrombin III (ATIII) and thrombin, resulting in thrombin inactivation. […] The inventors therefore next examined the effect of heparanase on the heparin induced reduction of both, aPTT and TT responses.

[6] = test system: intrinsic coagulation pathway; assay: Activated partial thromboplastin time (aPTT), direct effect; assay type: biochemical; conditions: Heparanase 10 μg/ml; normal range 25-34 sec
Description: as §1, with “UK). […]” for “UK).”

[7] = test system: thrombin mediated fibrin generation; assay: Thrombin time (TT), direct effect; assay type: biochemical; conditions: Heparanase 10 μg/ml; normal range 14-21 sec
Excerpt: Another test may be the Thrombin Time (TT) assay which reflects the time taken for a plasma sample to clot on addition of thrombin. The test is essentially a measure of fibrinogen to fibrin conversion and the factors affecting this terminal stage of the coagulation system.
as §2

[8] = target: T2, Protein C (Homo sapiens, UniProt P04070); assay: Protein C activity (Berichrom Protein C kit); assay type: biochemical; conditions: Heparanase 10 μg/ml; normal range 75-151%
T2 construct: from tissue; host or cells: normal plasma
Description: as §1

[9] = target: T3, Protein S (Homo sapiens, UniProt P07225); assay: Protein S activity (Liatest kit); assay type: biochemical; conditions: Heparanase 10 μg/ml; normal range 54-138%
T3 construct: from tissue; host or cells: normal plasma
T3 sequence (P07225 42-676): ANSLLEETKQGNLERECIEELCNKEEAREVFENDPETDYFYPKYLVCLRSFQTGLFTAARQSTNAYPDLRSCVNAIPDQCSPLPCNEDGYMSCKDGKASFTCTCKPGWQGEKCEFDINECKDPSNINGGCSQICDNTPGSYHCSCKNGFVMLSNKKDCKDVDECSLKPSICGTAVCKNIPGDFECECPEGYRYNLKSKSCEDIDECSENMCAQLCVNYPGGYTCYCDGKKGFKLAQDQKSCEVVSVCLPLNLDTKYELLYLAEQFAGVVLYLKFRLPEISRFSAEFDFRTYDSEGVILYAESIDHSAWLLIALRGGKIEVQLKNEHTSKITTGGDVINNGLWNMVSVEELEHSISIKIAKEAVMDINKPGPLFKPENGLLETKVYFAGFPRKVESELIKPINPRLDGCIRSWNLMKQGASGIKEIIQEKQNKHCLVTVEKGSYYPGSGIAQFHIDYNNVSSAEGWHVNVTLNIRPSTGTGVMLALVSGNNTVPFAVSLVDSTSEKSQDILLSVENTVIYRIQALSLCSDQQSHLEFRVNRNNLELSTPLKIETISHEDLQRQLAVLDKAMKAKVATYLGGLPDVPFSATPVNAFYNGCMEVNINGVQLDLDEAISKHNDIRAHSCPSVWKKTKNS
Description: as §1

[10] = target: T4, Antithrombin III (Homo sapiens, UniProt P01008); assay: Antithrombin III (chromogenic Berichrom Antithrombin III kit); assay type: biochemical; conditions: Heparanase 10 μg/ml; normal range 74-114%
T4 construct: from tissue; host or cells: normal plasma
Description: as §1

[11] = target: T5, Factor Xa (Bos taurus, UniProt P00743); assay: Factor Xa activity, direct effect; assay type: biochemical, human; conditions: Heparanase 10 μg/ml, no heparinoid, normal value 100%
T5 construct: purchased Chromogenics
Description: as §1

[12] = test system: normal donor platelets; assay: Platelet aggregation stimulated by mediators (ADP, collagen, thrombin); assay type: cell-based; conditions: Heparanase 10 μg/ml
Description: as §1
The effects of heparanase on platelet aggregation stimulated by a variety of mediators (e.g. ADP, collagen, thrombin), was next tested.

[13] = test system: Factor Xa; assay: Factor Xa activity ex vivo in plasma of LMWH-treated patients; assay type: biochemical, human; conditions: for Factor Xa activity in LMWH-treated patient plasma: plasma of twelve LMWH-treated patients, measured within 5 min, recombinant pro-heparanase, FIG. 5A
Description: FIG. 5A. Heparanase pro-enzyme was added to plasma derived from twelve independent LMWH-treated patients. Factor Xa activity was then measured, within 5 min. Each sample was measured in the absence (open bars) or presence (filled bars) of […] recombinant pro-heparanase. Each measurement was performed in duplicates (the average of each duplicate is shown, with differences between measurements <10%).
FIG. 5B. Summary of the effect of pro-heparanase on Factor Xa activity in the presence of heparin treated plasma, and the 12 LMWH-treated patient derived plasma samples (average±S.D.). Abbreviations: act. (activity), pat. (patient), pla. (plasma) cont. (control).
In order to assess possible clinical effects of heparanase pro-enzyme as an anti-dot to LMWH, heparanase pro-enzyme effect on Factor Xa activity ex vivo, was next tested in plasma derived from patients treated with LMWH, which were incubated with 10 •g/ml heparanase proenzyme. […] Thus, heparanase pro-enzyme reduced FXa inhibitory effects of LMWH in individual patient plasma samples, even at high levels of LMWH. Overall, the level of FXa inhibitory activity of LMWH in treated patients was reduced approximately by 50% (FIG. 5B).

T5 sequence (P00743 234-492 limits assumed): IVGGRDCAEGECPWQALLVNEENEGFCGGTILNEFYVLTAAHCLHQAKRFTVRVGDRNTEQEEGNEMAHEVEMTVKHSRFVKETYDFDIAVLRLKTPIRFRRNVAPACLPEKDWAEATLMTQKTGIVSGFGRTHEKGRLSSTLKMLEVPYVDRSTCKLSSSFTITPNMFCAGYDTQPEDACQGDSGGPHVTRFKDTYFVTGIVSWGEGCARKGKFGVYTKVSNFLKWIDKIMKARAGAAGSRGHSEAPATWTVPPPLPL
T5 sequence (P00743 41-180 limits assumed): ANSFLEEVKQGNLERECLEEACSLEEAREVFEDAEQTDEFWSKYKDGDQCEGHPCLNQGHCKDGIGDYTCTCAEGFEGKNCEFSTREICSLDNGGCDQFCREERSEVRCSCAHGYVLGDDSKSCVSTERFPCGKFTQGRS
T2 sequence (P04070 19-461 limits assumed): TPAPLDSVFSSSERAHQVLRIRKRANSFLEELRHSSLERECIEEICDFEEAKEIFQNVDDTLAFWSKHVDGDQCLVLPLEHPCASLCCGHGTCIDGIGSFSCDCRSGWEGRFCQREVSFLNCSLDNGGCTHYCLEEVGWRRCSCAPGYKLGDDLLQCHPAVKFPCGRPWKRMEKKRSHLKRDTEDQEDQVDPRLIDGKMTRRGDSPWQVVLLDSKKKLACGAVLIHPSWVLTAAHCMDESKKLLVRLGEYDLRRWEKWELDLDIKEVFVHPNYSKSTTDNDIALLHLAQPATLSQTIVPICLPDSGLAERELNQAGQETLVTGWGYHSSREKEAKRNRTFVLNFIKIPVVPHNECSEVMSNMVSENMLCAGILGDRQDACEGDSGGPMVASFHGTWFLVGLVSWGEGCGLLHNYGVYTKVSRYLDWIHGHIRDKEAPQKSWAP
T4 sequence (P01008 33-464): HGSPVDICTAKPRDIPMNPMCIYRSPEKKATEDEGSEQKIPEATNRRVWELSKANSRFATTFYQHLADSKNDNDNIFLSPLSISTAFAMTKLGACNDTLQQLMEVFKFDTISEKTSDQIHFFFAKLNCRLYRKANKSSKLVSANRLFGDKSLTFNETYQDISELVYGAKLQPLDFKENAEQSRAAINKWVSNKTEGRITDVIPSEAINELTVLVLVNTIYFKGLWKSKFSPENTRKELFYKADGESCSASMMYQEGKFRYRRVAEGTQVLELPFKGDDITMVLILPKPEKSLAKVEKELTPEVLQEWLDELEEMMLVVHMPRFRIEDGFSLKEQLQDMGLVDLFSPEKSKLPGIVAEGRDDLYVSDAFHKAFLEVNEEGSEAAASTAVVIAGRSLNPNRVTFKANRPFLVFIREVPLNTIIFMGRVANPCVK

Molecule: Enoxaparin [low molecular weight heparin, reference compound]
- Effect of heparinoid on Factor Xa activity ([1]; FIG. 4): reduces significantly

Molecule: Lys158-Asp171 heparin-binding peptide: fourteen amino acid peptide of residues Lys158-Asp171 of human heparanase, heparin-binding domain, SEQ ID NO: 1 (KKFKNSTYSRSSVD; listed as Homo sapiens)
- Reversal of Factor Xa inhibitory effect of LMWH ([1]; peptide 1 mg/ml, FIG. 7): completely reverse
- Reversal of Factor Xa inhibitory effect of UFH ([1]; peptide 1 mg/ml, FIG. 7): completely reverse
- Reversal of Factor Xa inhibitory effect of LMWH ([1]; peptide 1 mg/ml, FIG. 7, listed as Lys158-Asp171 heparin binding (HB) peptide): abolished
- Reversal of Factor Xa inhibitory effect of heparin [1]: completely reverse
- Reversal of Factor Xa inhibitory effect of heparin ([1]; listed as Lys158-Asp171 heparin binding (HB) peptide): abolished the FXa inhibitory effects of heparin
- Inhibition of heparanase enzymatic activity [2]: inhibited heparanase enzymatic activity in a dose-responsive manner

Molecule: heparin [reference compound]
- Effect on PT response [3]: neither heparin nor heparanase pro-enzyme affected
- Inhibition of clot formation in aPTT assay ([4]; 1 u/ml heparin, normal plasma, FIG. 2): complete coagulation inhibition
- Inhibition of clot formation in thrombin time assay ([5]; 0.5 u/ml heparin): complete coagulation inhibition

B1: Heparanase pro-enzyme: latent 65 kDa human heparanase protein with Myc and His tags, purified from conditioned medium of CHO cells (protein, UniProt Q9Y251 36-543, looked up)
pro-form: QDVVDLDFFTQEPLHLVSPSFLSVTIDANLATDPRFLILLGSPKLRTLARGLSPAYLRFGGTKTDFLIFDPKKESTFEERSYWQSQVNQDICKYGSIPPDVEEKLRLEWPYQEQLLLREHYQKKFKNSTYSRSSVDVLYTFANCSGLDLIFGLNALLRTADLQWNSSNAQLLLDYCSSKGYNISWELGNEPNSFLKKADIFINGSQLGEDFIQLHKLLRKSTFKNAKLYGPDVGQPRRKTAKMLKSFLKAGGEVIDSVTWHHYYLNGRTATKEDFLNPDVLDIFISSVQKVFQVVESTRPGKKVWLGETSSAYGGGAPLLSDTFAAGFMWLDKLGLSARMGIEVVMRQVFFGAGNYHLVDENFDPLPDYWLSLLFKKLVGTKVLMASVQGSKRRKLRVYLHCTNTDNPRYKEGDLTLYAINLHNVTKYLRLPYPFSNKQVDKYLLRPLGPHGLLSKSVQLNGLTLKMVDDQTLPPLMEKPLRPGSSLGLPAFSYSFFVIRNAKVAACI
modifications: pro-form Myc and His tags
notes: latent 65 kDa human heparanase protein with Myc and His tags, purified from conditioned medium of CHO cells
- Prothrombin time (PT) ([3]; Heparanase 10 μg/ml, normal range 10.03-12.43 sec, single representative experiment): 10.6 s
- Effect on PT response [3]: neither heparin nor heparanase pro-enzyme affected
- Activated partial pro-thrombin time (aPTT) [6]: 29.4 s
- Thrombin time (TT) [7]: 17.3 s
- Protein C-activity [8]: 111%
- Protein S-activity [9]: 105%
- Antithrombin III [10]: 103%
- Factor Xa-activity [11]: 102%
- Factor Xa-activity ([11]; listed as heparanase proenzyme): had no effect
- Platelet aggregation [12]: No effects of heparanase
- Pro-coagulant effects at low concentration ([4]; heparanase concentrations of less then 5 μg/ml, not shown, assay not specified): no pro-coagulant effects
- Reversal of heparin anti-coagulant effects on the aPTT response ([4]; normal plasma, neutral pH, FIG. 2): significantly reversed
- Reversal of heparin anti-coagulant effects on thrombin time [5]: significantly prevented; also recorded: significantly reversed
- Reversal of heparin anti-Xa activity ([1]; FIG. 4): restoring Xa activity to normal levels
- Reversal of heparin anti-Xa activity ([1]; FIG. 4, listed as heparanase proenzyme): restoring FXa activity to the normal level
- Reduction of FXa inhibitory activity of LMWH in treated patients ([13]; 10 •g/ml heparanase proenzyme, overall of 12 patients, FIG. 5B): ~50%
- Factor Xa activity in LMWH-treated patient plasma [13]: significant elevation
- Factor Xa activity in LMWH-treated patient plasma ([13]; listed as heparanase pro-enzyme): elevated significantly
